{"source": "paper PMC1298930", "origin": "cited, not measured here", "biological_target": "PCNA2 (Sulfolobus solfataricus) (UniProt Q97Z84)", "sequence (Q97Z84 whole entry)": "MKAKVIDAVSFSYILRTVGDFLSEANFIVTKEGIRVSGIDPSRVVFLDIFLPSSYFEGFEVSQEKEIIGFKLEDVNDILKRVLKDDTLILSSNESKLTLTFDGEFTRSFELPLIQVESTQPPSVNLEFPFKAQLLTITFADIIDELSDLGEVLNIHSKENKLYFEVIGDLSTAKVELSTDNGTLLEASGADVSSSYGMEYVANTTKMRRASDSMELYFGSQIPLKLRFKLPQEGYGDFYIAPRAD"}
{"substance": "PCNA1 (from UniProt P57766)", "values": [{"measurement": "Kd", "result": 0.012, "unit": "nM"}]}
